Source: patent US6887705B1, “Tyrosine phosphorylated cleavage furrow-associated proteins (PSTPIPs)” (Genentech, Inc., priority 1997, dated 2005)
Entries after “also recorded” stand apart in the source; their conditions may differ.

T1: PTP HSCF (Mus musculus, UniProt Q61152)
T1 construct: the PST (and C-terminal homolog) of PTP HSCF (amino acids 304-453); made in house; host or cells: E. coli DH5-alpha
T1 sequence (Q61152 304-453): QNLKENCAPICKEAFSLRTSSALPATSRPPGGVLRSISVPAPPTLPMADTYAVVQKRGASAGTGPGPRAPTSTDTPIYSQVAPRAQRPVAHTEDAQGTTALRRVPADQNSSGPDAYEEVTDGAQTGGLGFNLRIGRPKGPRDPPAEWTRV

B1: GST-PSTPIP (GST fusion of full-length PSTPIP, amino acids 2-415) (other)
chain: MAQLQFRDAFWCRDFTAHTGYEVLLQRLLDGRKMCKDVEELLRQRAQAEERYGKELVQIARKAGGQTEMNSLRTSFDSLKQQTENVGSAHIQLALALREELRSLEEFRERQKEQRKKYEAIMDRVQKSKLSLYKKTMESKKAYDQKCRDADDAEQAFERVSANGHQKQVEKSQNKAKQCKESATEAERVYRQNIEQLERARTEWEQEHRTTCEAFQLQEFDRLTILRNALWVHCNQLSMQCVKDDELYEEVRLTLEGCDVEGDINGFIQSKSTGREPPAPVPYQNYYDREVTPLIGSPSIQPSCGVIKRFSGLLHGSPKTTPSAPAASTETLTPTPERNELVYASIEVQATQGNLNSSAQDYRALYDYTAQNSDELDISAGDILAVILEGEDGWWTVERNGQRGFVPGSYLEKL
notes: Made in DH5-alpha bacteria from pGEX4T-2; also called GST-full-length PSTPIP; GST PTP PIP; not shown: glutathione S-transferase encoded by pGEX-4T-2 (Pharmacia)
B2: PSTPIP: murine PST Phosphatase Interacting Protein, 415 residues (SEQ ID NO:1) (protein)
chain: MMAQLQFRDAFWCRDFTAHTGYEVLLQRLLDGRKMCKDVEELLRQRAQAEERYGKELVQIARKAGGQTEMNSLRTSFDSLKQQTENVGSAHIQLALALREELRSLEEFRERQKEQRKKYEAIMDRVQKSKLSLYKKTMESKKAYDQKCRDADDAEQAFERVSANGHQKQVEKSQNKAKQCKESATEAERVYRQNIEQLERARTEWEQEHRTTCEAFQLQEFDRLTILRNALWVHCNQLSMQCVKDDELYEEVRLTLEGCDVEGDINGFIQSKSTGREPPAPVPYQNYYDREVTPLIGSPSIQPSCGVIKRFSGLLHGSPKTTPSAPAASTETLTPTPERNELVYASIEVQATQGNLNSSAQDYRALYDYTAQNSDELDISAGDILAVILEGEDGWWTVERNGQRGFVPGSYLEKL
modifications: Mus Musculus
B3: W232A mutant of PST PIP, C-terminal FLAG (other)
chain: MMAQLQFRDAFWCRDFTAHTGYEVLLQRLLDGRKMCKDVEELLRQRAQAEERYGKELVQIARKAGGQTEMNSLRTSFDSLKQQTENVGSAHIQLALALREELRSLEEFRERQKEQRKKYEAIMDRVQKSKLSLYKKTMESKKAYDQKCRDADDAEQAFERVSANGHQKQVEKSQNKAKQCKESATEAERVYRQNIEQLERARTEWEQEHRTTCEAFQLQEFDRLTILRNALAVHCNQLSMQCVKDDELYEEVRLTLEGCDVEGDINGFIQSKSTGREPPAPVPYQNYYDREVTPLIGSPSIQPSCGVIKRFSGLLHGSPKTTPSAPAASTETLTPTPERNELVYASIEVQATQGNLNSSAQDYRALYDYTAQNSDELDISAGDILAVILEGEDGWWTVERNGQRGFVPGSYLEKLDYKDDDDK
notes: In vitro translated or expressed in COS cells; also called W232A PST PIP; PST PIP with an alanine replacement mutation at tryptophan232

Target: T1, PTP HSCF
Test: In vitro GST pull-down binding of PST PIP forms to PTP HSCF
Protocol: The binding was carried out according to the method of Wong and Johnson (Wong et al., J. Biol. Chem. 271(35):20981-20984 (1996)). Briefly, 1 μg of plasmid with either the PSTPIP protein or PTP HSCF under the control of the Sp6 promoter was in vitro transcribed/translated using the Promega™ TnT Rabbit Reticulocyte™ system. Samples were diluted in 50 mM HEPES, pH 7.2, 1% triton X 100, 10% glycerol, 100 mM NaCl, 5 mM EDTA and 2 μg/ml each of leupeptin, pepstatin, aprotinin, and PMSF. […] This was reacted for 1 hour at 4° C. and then the resin washed 6 times in HEPES/Triton binding buffer before SDS gel electrophoresis. The peptides were synthesized on an automated Milligen 9050 Peptide Synthesizer using standard solid phase chemistry with FMOC protected amino acids on a p-alkoxybenzyl alcohol resin. Dried peptides were re-suspended in the HEPES/Triton Binding buffer at a concentration of 10 mg/ml. Peptide inhibition was performed by adding the peptide first to the in vitro translation product and then the GST-fusion followed by the GSH-Sepharose. The binding/washing steps were as previously described. The peptides synthesized and the PTPs they were derived from were: • PXXP-HSCF: 432[…]451 (PTP HSCF) (SEQ ID NO:20), • PXXP-PEP: 782GFGNRFSKPKGPRNPPSAW800 (PTP PEP) (SEQ ID NO:21), • PXXP-PEST: 761[…]780 (PTP PEST) SEQ ID NO:22), • PXXP-CONTROL: 334[…]353 (PTP HSCF) (SEQ ID NO:23).
In vitro binding analyses between various PTP HSCF and PST PIP constructs were performed as previously described (Spencer et al, (1997), supra). Briefly, plasmids were transcribed and translated in vitro using the TnT Rabbit Reticulocyte Lysate System (Promega). Samples were diluted in 50 mM HEPES, pH 7.2, 1% triton X-100, 10% glycerol, 100 mM NaCl, and 2 μg/ml each of leupeptin, pepstatin, aprotinin and PMSF (lysis buffer). Samples were than reacted with GST fusion proteins at various concentrations, and the bound proteins were centrifuged using glutathione-sepharose beads and analyzed on SDS polyacrylamide gels. C-terminally-derived peptide inhibition studies were performed by incubating the GST fusion protein binding reactions in the presence of 10 μg/ml of the indicated peptides. Peptides were produced by FMOC-protected amino acids as previously described (Spencer et al, (1997), supra). In vivo interactions between various forms of PTP HSCF and PST PIP were also performed as previously described (Spencer et al, (1997), supra). Briefly, COS cells were transfected with various constructs, and after 48 hours, lysates were prepared and immunoprecipitated with antibodies to either the FLAG epitope contained at the C-terminus of PST PIP or an HA epitope contained at the N-terminus of PTP HSCF. The resultant blots were probed with anti-FLAG to detect PST PIP, anti-HA to detect PTP HSCF or anti-phosphotyrosine to detect levels of this modified amino acid in each protein.

Molecule	precipitation of in vitro translated PTP HSCF by GST fusions of PSTPIP or its domains (~1 microgram per ml GST fusion protein)	binding of in vitro translated PST PIP forms to GST fusion of C-terminal 149 amino acids of PTP HSCF
B1	high degree of specificity	
B2		capable of interacting
B3		complete loss of binding; also recorded: abolishes the interaction
